Assay results taken from article doi:10.1101/2022.04.25.489347.

How the values were obtained:
[1] = target: AtFKBP43 (1-136) (Arabidopsis thaliana) (UniProt F4J9Q6); test: pull-down
[2] = target: AtFKBP43 (1-164) (Arabidopsis thaliana) (UniProt F4J9Q6); test: pull-down
Chain of AtFKBP43 (1-164) (Arabidopsis thaliana) (F4J9Q6 1-164): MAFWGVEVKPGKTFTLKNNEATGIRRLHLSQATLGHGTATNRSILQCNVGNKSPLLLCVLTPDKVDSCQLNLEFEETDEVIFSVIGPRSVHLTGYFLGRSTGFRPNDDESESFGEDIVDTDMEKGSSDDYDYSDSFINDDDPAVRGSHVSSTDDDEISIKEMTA

Chain of AtFKBP43 (1-136) (Arabidopsis thaliana) (F4J9Q6 1-136): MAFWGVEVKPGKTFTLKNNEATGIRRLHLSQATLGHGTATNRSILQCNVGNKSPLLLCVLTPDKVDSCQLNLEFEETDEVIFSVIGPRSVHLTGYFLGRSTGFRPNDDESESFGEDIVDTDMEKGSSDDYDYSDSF

## H2A/H2B dimer (from UniProt P06897 1-130; P02281 1-126) (complex)
[1]
  NaCl concentration up to which the complex was stable: 0.3 M
[2]
  NaCl concentration up to which the complex was stable: 0.3 M

## H3/H4 tetramer (from UniProt P84233 1-136; P62799 1-103) (complex)
[1]
  NaCl concentration up to which the complex was stable: 1 M
[2]
  NaCl concentration up to which the complex was stable: 1 M
